Holding throughout (assay): Crosslinking/co-immunoprecipitation/mass spectrometry (TMT quantitative proteomics) to identify irisin receptors
What all share (assay type): binding

Assay [1] concerns the target T1, MLO-Y4 cell surface proteins (Mus musculus, UniProt P62737).
T1 construct: endogenous in cells; host or cells: MLO-Y4
The following applies: co-precipitated protein Acta2 (ACTA_MOUSE). The essentials:
(§1)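 Mouse MLO-Y4 cells were switched to serum-free FreeStyle medium for 4 h, chilled, then exposed to 10 nM His-tagged irisin (or adipsin as control) for 20 min. Cells were crosslinked with 1.5 mM DTSSP (30 min, ice), and bound proteins were pulled down on Ni-NTA and eluted with 250 mM imidazole. Eluates were separated by SDS-PAGE, trypsin-digested in gel, TMT 6-plex labelled and quantified by MS3-based LC-MS/MS on an Orbitrap Fusion Lumos.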

The target in assay [2] is T2, MLO-Y4 cell surface proteins (Mus musculus, UniProt Q8VHN7).
T2 construct: endogenous in cells; host or cells: MLO-Y4
The following applies: co-precipitated protein Gpr98 (GPR98_MOUSE). In short, it runs like this:
as §1

For assay [3], the target named is T3, MLO-Y4 cell surface proteins (Mus musculus, UniProt Q9D3P1).
T3 construct: endogenous in cells; host or cells: MLO-Y4
T3 sequence (Q9D3P1 1-638): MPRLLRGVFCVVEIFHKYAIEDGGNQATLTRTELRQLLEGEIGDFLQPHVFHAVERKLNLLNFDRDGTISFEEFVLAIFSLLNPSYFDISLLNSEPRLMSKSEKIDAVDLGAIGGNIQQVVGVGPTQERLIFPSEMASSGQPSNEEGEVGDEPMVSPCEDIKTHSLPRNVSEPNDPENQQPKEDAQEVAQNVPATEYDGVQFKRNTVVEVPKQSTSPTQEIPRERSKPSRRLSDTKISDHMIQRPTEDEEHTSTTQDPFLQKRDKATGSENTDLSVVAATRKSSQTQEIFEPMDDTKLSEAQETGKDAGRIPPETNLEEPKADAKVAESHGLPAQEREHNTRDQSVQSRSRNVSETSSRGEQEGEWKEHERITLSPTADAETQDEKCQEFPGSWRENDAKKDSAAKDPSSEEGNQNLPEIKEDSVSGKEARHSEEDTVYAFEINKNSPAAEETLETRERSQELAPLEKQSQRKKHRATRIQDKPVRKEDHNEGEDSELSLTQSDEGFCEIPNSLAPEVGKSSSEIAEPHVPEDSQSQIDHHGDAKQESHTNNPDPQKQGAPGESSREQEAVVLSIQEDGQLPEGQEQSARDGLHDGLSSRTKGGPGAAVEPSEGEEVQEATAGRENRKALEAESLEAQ
The following applies: co-precipitated protein Tchhl1 (TCHL1_MOUSE). The essentials: as §1

B1: irisin: secreted cleaved form of FNDC5; recombinant human/mouse irisin with C-terminal his tag produced in HEK293 cells (protein)
chain: DSPSAPVNVTVRHLKANSAVVSWDVLEDEVVIGFAISQQKKDVRMLRFIQEVNTTTRSCALWDLEEDTEYIVHVQAISIQGQSPASEPVLFKTPREAEKMASKNKDEVTMKE
modifications: left off: small tags and cut ends
notes: secreted cleaved form of FNDC5; recombinant human/mouse irisin with C-terminal his tag produced in HEK293 cells
Consider B1, for which the values for the TMT signal-to-noise ratio in assay [1], in assay [2] and in assay [3] were 107.601, 249.388 and 23.5307, respectively. The results for the “irisin/adipsin TMT signal-to-noise ratio” value in assay [1], in assay [2] and in assay [3] were 0.298, 0.403 and 0.013, respectively.

Values taken from patent US20210063414A1, “METHODS FOR PREVENTING AND/OR TREATING BONE LOSS CONDITIONS BY MODULATING IRISIN” (Dana-Farber Cancer Institute, Inc., priority 2018, published 2021).
